Measurements taken from US20220306715A1.

Tests used:
anti-IL-6ST antibody = assay: sandwich ELISA on the MSD platform; capture: plate-bound anti-IL-6ST antibody; detection: anti-IL-12A antibody
[1] = target: interleukin-6 (IL-6) receptor; assay: cell-based or functional assay

| EC50 (read off the curve) (anti-IL-6ST antibody) [µg/mL] | EC50 of induction of apoptosis in IL-6 dependent DS-1 cells cultured 24 hours with IL-6 (caspase 3/7 luciferase assay) [1] [nM] | Substance |
| --- | --- | --- |
| 0.7 | – | mIL-6R-Fc-IL-35 chimeric protein (from UniProt Q00560 23-617; P43431 23-215; P22272 20-364; O35228 19-228) (Fc fusion) |
| – | 317 | tocilizumab (antibody) |
